Assay [1] addresses biotinylated eboIZN39IQ.
The target in assay [2] is biotinylated eboIZN39IQ. The experiment in a line: SPR (ProteOn XPR36), eboC24 flowed over biotin-eboIZN39IQ, pH 5.8.

Read-outs that look alike come from different tables or passages of the source.

On to IEPHDWTKNITDKIDQIIHDFVDK (modifications not checked) [eboC24], for which the results for the equilibrium dissociation constant (Kd) in the assay with biotinylated eboIZN39IQ [1] and with biotinylated eboIZN39IQ [2] were 0.31 µM and 0.3 µM, respectively.

As usually defined, the Kd is the free concentration of one partner at which half of the binding sites on the other are occupied at equilibrium, for simple one-to-one binding. A higher Kd goes with a looser complex.

Source of the values: patent US20170247418A1.
